# Test results as given in patent publication US20060002951.
# B1: HA-tagged APOBEC3G deletion mutant Δ309-384 (protein)
# chain: MKPHFRNTVERMYRDTFSYNFYNRPILSRRNTVWLCYEVKTKGPSRPPLDAKIFRGQVYSELKYHPEMRFFHWFSKWRKLHRDQEYEVTWYISWSPCTKCTRDMATFLAEDPKVTLTIFVARLYYFWDPDYQEALRSLCQKRDGPRATMKIMNYDEFQHCWSKFVYSQRELFEPWNNLPKYYILLHIMLGEILRHSMDPPTFTFNFNNEPWVRGRHETYLCYEVERMHNDTWVLLNQRRGFLCNQAPHKHGFLEGRHAELCFLDVIPFWKLDLDQDYRVTCFTSWSPCFSCAQEMAKFISKNKHVSLC
# B2: HA-tagged APOBEC3G deletion mutant Δ1-104 (protein)
# chain: MATFLAEDPKVTLTIFVARLYYFWDPDYQEALRSLCQKRDGPRATMKIMNYDEFQHCWSKFVYSQRELFEPWNNLPKYYILLHIMLGEILRHSMDPPTFTFNFNNEPWVRGRHETYLCYEVERMHNDTWVLLNQRRGFLCNQAPHKHGFLEGRHAELCFLDVIPFWKLDLDQDYRVTCFTSWSPCFSCAQEMAKFISKNKHVSLCIFTARIYDDQGRCQEGLRTLAEAGAKISIMTYSEFKHCWDTFVDHQGCPFQPWDGLDEHSQDLSGRLRAILQNQEN
# B3: wild-type human APOBEC3G with a fused HA tag at the C-terminus (protein)
# chain: MKPHFRNTVERMYRDTFSYNFYNRPILSRRNTVWLCYEVKTKGPSRPPLDAKIFRGQVYSELKYHPEMRFFHWFSKWRKLHRDQEYEVTWYISWSPCTKCTRDMATFLAEDPKVTLTIFVARLYYFWDPDYQEALRSLCQKRDGPRATMKIMNYDEFQHCWSKFVYSQRELFEPWNNLPKYYILLHIMLGEILRHSMDPPTFTFNFNNEPWVRGRHETYLCYEVERMHNDTWVLLNQRRGFLCNQAPHKHGFLEGRHAELCFLDVIPFWKLDLDQDYRVTCFTSWSPCFSCAQEMAKFISKNKHVSLCIFTARIYDDQGRCQEGLRTLAEAGAKISIMTYSEFKHCWDTFVDHQGCPFQPWDGLDEHSQDLSGRLRAILQNQEN
# B4: HA-tagged APOBEC3G deletion mutant Δ1-156 (protein)
# chain: MFQHCWSKFVYSQRELFEPWNNLPKYYILLHIMLGEILRHSMDPPTFTFNFNNEPWVRGRHETYLCYEVERMHNDTWVLLNQRRGFLCNQAPHKHGFLEGRHAELCFLDVIPFWKLDLDQDYRVTCFTSWSPCFSCAQEMAKFISKNKHVSLCIFTARIYDDQGRCQEGLRTLAEAGAKISIMTYSEFKHCWDTFVDHQGCPFQPWDGLDEHSQDLSGRLRAILQNQEN
# B5: HA-tagged APOBEC3G deletion mutant Δ157-384 (protein)
# chain: MKPHFRNTVERMYRDTFSYNFYNRPILSRRNTVWLCYEVKTKGPSRPPLDAKIFRGQVYSELKYHPEMRFFHWFSKWRKLHRDQEYEVTWYISWSPCTKCTRDMATFLAEDPKVTLTIFVARLYYFWDPDYQEALRSLCQKRDGPRATMKIMNYDE
# B6: HA-tagged APOBEC3G deletion mutant Δ246-384 (protein)
# chain: MKPHFRNTVERMYRDTFSYNFYNRPILSRRNTVWLCYEVKTKGPSRPPLDAKIFRGQVYSELKYHPEMRFFHWFSKWRKLHRDQEYEVTWYISWSPCTKCTRDMATFLAEDPKVTLTIFVARLYYFWDPDYQEALRSLCQKRDGPRATMKIMNYDEFQHCWSKFVYSQRELFEPWNNLPKYYILLHIMLGEILRHSMDPPTFTFNFNNEPWVRGRHETYLCYEVERMHNDTWVLLNQRRGFLCNQ
# Columns and labels:
# [1] = target: wild-type HIV-1 Gag expressed from the hGag plasmid
# [2] = target: Gag of HIV-1 BH10 expressed from BH10.P-.Vif- or BH10.FS-.Vif- proviral DNA, P03347
# [3] = target: mutant Gag of ZWt-p6.Vif-, in which the nucleocapsid sequence has been replaced with a yeast leucine zipper domain
# [4] = target: HIV-1 Vif (virion infectivity factor)
protein,measurement,setting,value
B1,"viral content relative to wild type APOBEC3G (Gag VLPs, Western blot)",[1],the viral content of these N-terminal fragments is >60% of wild type APOBEC3G
B2,"incorporation into Gag VLPs (APOBEC3G:Gag ratio, Western blot)",[1],deletion of the N-terminal 104 amino acids or the C-terminal 157-384 amino acids (See SEQ ID NO: 21) does not affect the ability of APOBEC3G to be packaged into Gag VLPs
B3,ability of the viruses to package APOBEC3G (Western blots of viral lysates),[2],BH10.FS-.Vif- can package APOBEC3G as efficiently as BH10.P-
same,ability of the viruses to package APOBEC3G (Western blots of viral lysates),[3],the ability of ZWt-p6.Vif- to incorporate APOBEC3G is reduced 90% compared with BH10.FS-.Vif-
same,distribution of APOBEC3G between cytoplasm and membrane (sucrose floatation assay),[3],the majority of APOBEC3G remains in the cytoplasm even though most Gag is found at membrane
same,incorporation of APOBEC3G into Gag VLPs (Western blot of VLP lysates),[1],Gag alone is sufficient among the viral proteins for facilitating APOBEC3G incorporation
same,share of APOBEC3G in the membrane-bound fraction (sucrose floatation assay),[1],"in the presence of Gag (FIG. 5B), >90% of APOBEC3G is localized in the membrane-bound protein"
B4,"reduction in the ability to be degraded by Vif (ratio of expression with and without Vif, Western blot)",[4],"the deletion of the N-terminal 156 or C-terminal 157-384 amino acids results in 80% and 90% reduction in the ability of the resulting fragments to be degraded by Vif, respectively"
same,"incorporation into Gag VLPs (APOBEC3G:Gag ratio, Western blot)",[1],the deletion of the N-terminal 156 amino acids abolishes its incorporation into viruses
B5,cytoplasmic expression of full-length hA3G in the presence of Vif (Western blot with anti-HA),[4],"an increase in the cytoplasmic expression of full-length hA3G was detected with an increase in expression of hA3G 1-156 or hA3G 157-384, respectively"
same,"incorporation into Gag VLPs (APOBEC3G:Gag ratio, Western blot)",[1],deletion of the N-terminal 104 amino acids or the C-terminal 157-384 amino acids (See SEQ ID NO: 21) does not affect the ability of APOBEC3G to be packaged into Gag VLPs
same,"viral content relative to wild type APOBEC3G (Gag VLPs, Western blot)",[1],the viral content of these N-terminal fragments is >60% of wild type APOBEC3G
B6,"viral content relative to wild type APOBEC3G (Gag VLPs, Western blot)",[1],the viral content of these N-terminal fragments is >60% of wild type APOBEC3G
